The values below come from patent US20240317847A1 (Bayer, published 2024).

T1: human IL-11 (human, UniProt P20809 22-199)
T1 sequence: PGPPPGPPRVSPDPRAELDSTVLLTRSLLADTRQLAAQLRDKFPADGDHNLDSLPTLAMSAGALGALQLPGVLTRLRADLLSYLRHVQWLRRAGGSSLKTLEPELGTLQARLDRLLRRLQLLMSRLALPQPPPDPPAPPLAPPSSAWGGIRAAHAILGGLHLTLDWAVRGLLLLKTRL

T2: murine IL-11 (mouse, UniProt P47873 22-199)
T2 sequence: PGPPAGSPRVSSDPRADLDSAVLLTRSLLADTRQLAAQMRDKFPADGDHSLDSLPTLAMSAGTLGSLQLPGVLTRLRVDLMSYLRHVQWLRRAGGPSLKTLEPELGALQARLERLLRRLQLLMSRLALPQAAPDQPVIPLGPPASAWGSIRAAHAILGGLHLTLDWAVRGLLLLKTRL

T3: human IL-11 (human, UniProt P20809 22-199)
T3 sequence: T1 sequence

T4: murine IL-11 (mouse, UniProt P47873 22-199)
T4 sequence: T2 sequence

B1: TPP-31295 (antibody, IgG4, V domains shown)
VH: EVQLLESGGGLVQPGGSLRLSCAASGFTFSHYDMNWLRQAPGKGLEWVGVISYDGSNKYYADFVKGRFTISRDNSKNTLYLQMNSLRAEDTAVYYCARTPGSHFDYWGQGTLVTVSS
VL: QSVLTQPPSASGTPGQRVTISCSGSSSNIGNNAVNWYQQLPGTAPKLLIYYDDLLPSGVPDRFSGSKSGTSASLAISGLRSEDEADYYCSAWDDSLNGVVFGGGTKLTVL
B2: TPP-31309 (antibody, IgG4, V domains shown)
VH: B1 VH with G55S, Y59F
VL: B1 VL with N97Q
B3: TPP-31290 (antibody, IgG4, V domains shown)
VH: B1 VH with H31S, Y59F
VL: B1 VL
B4: TPP-31279 (antibody, IgG4, V domains shown)
VH: B1 VH with Y59F
VL: B1 VL with N35Y
B5: TPP-31303 (antibody, IgG4, V domains shown)
VH: B1 VH with D54E, Y59F
VL: B1 VL with G98A
B6: TPP-31297 (antibody, IgG4, V domains shown)
VH: B1 VH with Y59F
VL: B1 VL with N97Q
B7: TPP-31306 (antibody, IgG4, V domains shown)
VH: B1 VH with G55A, Y59F
VL: B1 VL with N97S
B8: TPP-31305 (antibody, IgG4, V domains shown)
VH: B1 VH with G55A, Y59F
VL: B1 VL with N97Q
B9: TPP-31308 (antibody, IgG4, V domains shown)
VH: B1 VH with G55S, Y59F
VL: B1 VL
B10: TPP-31299 (antibody, IgG4, V domains shown)
VH: B1 VH with Y59F
VL: B1 VL with G98A
B11: TPP-31311 (antibody, IgG4, V domains shown)
VH: B1 VH with G55S, Y59F
VL: B1 VL with G98A
B12: TPP-31283 (antibody, IgG4, V domains shown)
VH: B1 VH with Y59F
VL: B1 VL with L54Q
B13: TPP-31310 (antibody, IgG4, V domains shown)
VH: B1 VH with G55S, Y59F
VL: B1 VL with N97S
B14: TPP-18087 (antibody, mouse IgG1, V domains shown)
VH: B1 VH with Y59F
VL: QSVLTQPPSASGTPGQRVTISCSGSSSNIGNNAVNWYQQLPGTAPKLLIYYDDLLPSGVPDRFSGSKSGTSASLAISGLRSEDEADYYCSAWDDSLNGVVFGGGTKLTVLG
B15: TPP-31298 (antibody, IgG4, V domains shown)
VH: B1 VH with Y59F
VL: B1 VL with N97S
B16: TPP-31302 (antibody, IgG4, V domains shown)
VH: B1 VH with D54E, Y59F
VL: B1 VL with N97S
B17: TPP-31281 (antibody, IgG4, V domains shown)
VH: B1 VH with Y59F
VL: B1 VL with D52N
B18: TPP-31304 (antibody, IgG4, V domains shown)
VH: B1 VH with G55A, Y59F
VL: B1 VL
B19: TPP-31300 (antibody, IgG4, V domains shown)
VH: B1 VH with D54E, Y59F
VL: B1 VL
B20: TPP-31280 (antibody, IgG4, V domains shown)
VH: B1 VH with Y59F
VL: B1 VL with Y51R
B21: TPP-31301 (antibody, IgG4, V domains shown)
VH: B1 VH with D54E, Y59F
VL: B1 VL with N97Q
B22: TPP-31282 (antibody, IgG4, V domains shown)
VH: B1 VH with Y59F
VL: B1 VL with D53N
B23: TPP-31307 (antibody, IgG4, V domains shown)
VH: B1 VH with G55A, Y59F
VL: B1 VL with G98A
B24: TPP-26290 (antibody, V domains shown)
VH: EVQLLESGGGLVQPGGSLRLSCAASGFTFSSYGMHWVRQAPGKGLEWVSVISYDGSYKYYADSVKGRFTISRDNSKNTLYLQMNSLRAEDTAVYYCAAGVPDYWGQGTLVTVSS
VL: QSVLTQPPSASGTPGQRVTISCTGSSSNIGAGMDVHWYQQLPGTAPKLLIYSNNERPSGVPDRFSGSKSGTSASLAISGLRSEDEADYYCAAWDDSLNGPVFGGGTKLTVL
B25: TPP-26312 (antibody, V domains shown)
VH: B24 VH
VL: B24 VL with M33L
B26: TPP-26301 (antibody, V domains shown)
VH: B24 VH
VL: B24 VL with G32D, M33Y

Positions count from the first letter of the chain named. Several values for one entry are separate records, joined by “and”; a condition that tells them apart may be missing. Equal values may be shown once.

In the first test the target is T1, human IL-11. The experiment in a line: cell-based or functional assay.
As for B1, the “IC50, RGA 1” value came to 364 nM and the “IC50, RGA 2” value worked out at 92 nM.
B2: the “IC50, RGA 1” value amounted to 261 nM and the “IC50, RGA 2” value is 122 nM.
Consider B3, for which the “IC50, RGA 1” value was greater than 500 nM.
Take B4: the “IC50, RGA 1” value is greater than 500 nM and the “IC50, RGA 2” value was greater than 500 nM.
On to B5, for which the “IC50, RGA 1” value was found to be 9.08 nM and the “IC50, RGA 2” value was 11 nM.
The matching figures for B6: 181 nM and 22 nM.
The matching figures for B7: 126 nM and 23 nM.
B8: the “IC50, RGA 1” value is 182 nM and the “IC50, RGA 2” value came out at 47 nM.
On to B9, for which the “IC50, RGA 1” value is greater than 500 nM and the “IC50, RGA 2” value is greater than 500 nM.
As to B10, the “IC50, RGA 1” value was 238 nM and the “IC50, RGA 2” value was 114 nM.
On the same counts, the results for B11 are greater than 500 nM and 34 nM.
The matching figures for B12: greater than 500 nM and 200 nM.
The matching figures for B13: greater than 500 nM and greater than 500 nM.
In the case of B14, the “IC50, RGA 1” value is 111 nM and 93 nM; the “IC50, RGA 2” value was determined as 12 nM.
For B15, the “IC50, RGA 1” value was 135 nM and the “IC50, RGA 2” value is 33 nM.
The matching figures for B16: 14.5 nM and 7.13 nM.
On to B17, for which the “IC50, RGA 1” value is greater than 500 nM.
As to B18, the “IC50, RGA 1” value turned out to be 104 nM and the “IC50, RGA 2” value is 35 nM.
The matching figures for B19: 1.09 nM and 4.75 nM.
With B20, the “IC50, RGA 1” value is greater than 500 nM.
With B21, the “IC50, RGA 1” value was 18.9 nM and the “IC50, RGA 2” value was 9.71 nM.
With B22, the “IC50, RGA 1” value came to 345 nM and the “IC50, RGA 2” value turned out to be 287 nM.
On the same counts, the results for B23 are greater than 500 nM and 126 nM.

For another test, the target named is T2, murine IL-11. Nature of the test: cell-based or functional assay.
As to B1, the “IC50, RGA 1” value came out at 60 nM and the “IC50, RGA 2” value stood at 37 nM.
On the same counts, the results for B2 are 108 nM and 68 nM.
In the case of B3, the “IC50, RGA 1” value was greater than 500 nM.
In the case of B4, the “IC50, RGA 1” value was found to be 196 nM and the “IC50, RGA 2” value is greater than 500 nM.
The matching figures for B5: 4.38 nM and 2.49 nM.
Regarding B6, the “IC50, RGA 1” value amounted to 37 nM and the “IC50, RGA 2” value was determined as 7.93 nM.
On the same counts, the results for B7 are 57 nM and 60 nM.
In the case of B8, the “IC50, RGA 1” value stood at 30 nM and the “IC50, RGA 2” value amounted to 29 nM.
The matching figures for B9: 63 nM and 170 nM.
On the same counts, the results for B10 are 44 nM and 14 nM.
The matching figures for B11: 76 nM and 127 nM.
Turning to B12, the “IC50, RGA 1” value came to 247 nM and the “IC50, RGA 2” value came out at 118 nM.
For the molecule B13, the “IC50, RGA 1” value was 144 nM and the “IC50, RGA 2” value stood at 75 nM.
On to B14, for which the “IC50, RGA 1” value is 204 nM and 231 nM; the “IC50, RGA 2” value was determined as 21 nM.
Take B15: the “IC50, RGA 1” value was found to be 21 nM and the “IC50, RGA 2” value is 6.22 nM.
On the same counts, the results for B16 are 3.49 nM and 1.17 nM.
With B17, the “IC50, RGA 1” value was greater than 500 nM.
Take B18: the “IC50, RGA 1” value came to 42 nM and the “IC50, RGA 2” value was 21 nM.
B19: the “IC50, RGA 1” value worked out at 3.42 nM and the “IC50, RGA 2” value came out at 0.81 nM.
Consider B20, for which the “IC50, RGA 1” value is greater than 500 nM.
For B21, the “IC50, RGA 1” value came out at 4.43 nM and the “IC50, RGA 2” value was found to be 1.77 nM.
The matching figures for B22: 70 nM and 28 nM.
The matching figures for B23: 45 nM and 37 nM.

Another test has as its target T3, human IL-11. The experiment in a line: cell-based or functional assay.
Take B24: the “RGA Efficacy (%)” value came to 75.9% and the “RGA IC50” value is 4.7 nM.
The matching figures for B25: 68.6% and 3.8 nM.
For B26, the “RGA Efficacy (%)” value was 76.1% and the “RGA IC50” value turned out to be 2.6 nM.

A further test has as its target T4, murine IL-11. Nature of the test: cell-based or functional assay.
B24: the “RGA Efficacy (%)” value was 95.1% and the “RGA IC50” value amounted to 0.97 nM.
On the same counts, the results for B25 are 87.3% and 1.2 nM.
The matching figures for B26: 91.8% and 1.5 nM.
